Experimental data from US20040157268.

Biological target: β2 adrenergic receptor modified to have a Flag epitope at the amino terminus and a TEV protease site within the third intracellular loop between residues 254 and 260 of the native protein

B1: Tobacco Etch Virus (TEV) protease, recombinant (protein)
chain: GESLFKGPRDYNPISSTICHLTNESDGHTTSLYGIGFGPFIITNKHLFRRNNGTLLVQSLHGVFKVKNTTTLQQHLIDGRDMIIIRMPKDFPPFPQKLKFREPQREERICLVTTNFQTKSMSSMVSDTSCTFPSSDGIFWKHWIQTKDGQCGSPLVSTRDGFIVGIHSASNFTNTNNYFTSVPKNFMELLTNQEAQQWVSGWRLNADSVLWGGHKVFMSKPEEPFQPVKEATQLMNELVYSQ
**Q.** What does the source list for B1?
**A.** Ratio of TEV-cleaved to uncleaved receptor (axis 'cut/uncut'), from the blot of FIG. 11B: Two bars, no error bars and no printed values. The 'Control' bar ends just above the 0.3 tick. The 'Isoproterenol' bar ends between the 1.2 and 1.5 ticks, several times higher than the control.; TEV cleavage of the receptor (Western blot; ratio of cleaved to uncleaved receptor), with and without the agonist isoproterenol: TEV cleavage of the 12 adrenergic receptor was enhanced in the presence of isoproterenol; TEV cleavage of the receptor's third-loop TEV site, seen as the lower (cleaved, N-terminal) band on a Western blot probed with M1 antibody: No lower band without TEV (TEV-/ISO-). Very faint lower band with TEV alone (TEV+/ISO-). Strong lower band and a weaker upper band with TEV plus isoproterenol (TEV+/ISO+).
